Experimental findings from PMC12324679 are described below.

For series [1], the system named is PuPuf4 (Pythium ultimum). Put plainly: MST. As to conditions: MST: 50 mM Tris pH 7.5, 150 mM NaCl, 10 mM MgCl2, 0.05% Tween 20, 25 C; EMSA: Beyotime EMSA/Gel-Shift Binding Buffer, 50 ng RNA, 25 C 30 min, 1% agarose gel. On the technique in general: A gel shift assay detects complexes by their altered migration in electrophoresis.
For series [2], the system named is PuPuf4 R111A F147A K368A (Pythium ultimum). Put plainly: MST. As to conditions: MST: 50 mM Tris pH 7.5, 150 mM NaCl, 10 mM MgCl2, 0.05% Tween 20, 25 C; EMSA: Beyotime EMSA/Gel-Shift Binding Buffer, 50 ng RNA, 25 C 30 min, 1% agarose gel.

With “GCCCAGUGCUCUGAAUGUCAAAGUGAAGAGAUUCACCAAGCGGCGGGUAAACGCG [H68 rRNA]”, the results for the Kd in series [1] and in series [2] were 240 nM and 620 nM, respectively.

One may read the Kd as the concentration at which binding is half-saturated.
